Each block holds one substance with its values, some of them ahead of it.
Key:
Assay in all cases: cell-based or functional assay
[1] = target: IL-2 receptor-dimer pair of the PathHunter IL-2 BioAssay cells
[2] = target: human CNTF receptor (CNTFR) on IMR-32 cells (human) (UniProt P26992)
[3] = target: human GFRAL and human RET on HEK293 cells (human) (UniProt Q6UXV0)
[4] = target: human ErbB4 receptor (NCBI Ref. Seq. No. NP_001036064.1) (human) (UniProt Q15303)

Chain of human CNTF receptor (CNTFR) on IMR-32 cells (human) (P26992 23-342): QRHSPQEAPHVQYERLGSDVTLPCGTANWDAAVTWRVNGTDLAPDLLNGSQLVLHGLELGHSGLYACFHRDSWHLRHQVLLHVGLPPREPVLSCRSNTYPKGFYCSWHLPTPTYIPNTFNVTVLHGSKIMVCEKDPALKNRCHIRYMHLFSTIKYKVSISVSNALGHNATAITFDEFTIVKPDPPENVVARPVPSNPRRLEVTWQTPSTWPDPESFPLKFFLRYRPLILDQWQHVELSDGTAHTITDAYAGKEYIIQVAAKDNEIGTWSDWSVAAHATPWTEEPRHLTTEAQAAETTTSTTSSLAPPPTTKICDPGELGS

- EC50 (nM), PathHunter IL-2 BioAssay [1]: 0.13 nM
Substance: Human IL-2 (reference standard of the PathHunter IL-2 BioAssay Kit) (from UniProt P60568 21-153) (ligand)

- hCNTFR EC50 pM GeoMean (pSTAT3 in IMR-32 cells) [2]: 3.5 pM
Substance: human CNTF (R&D Systems; Cat #257-NT-010) (from UniProt P26441 2-200) (ligand)

- hGFRAL/RET EC50 (pM), p-ERK1/2 AlphaLISA [3]: 2.85 pM
Substance: Human GDF15 (from UniProt Q99988 197-308) (ligand)

- EC50 (ng/mL), PathHunter ErbB4/ErbB4 dimerization assay [4]: 16.5 ng/mL
Substance: rhNRG-1 (eurofins cat #92-1091) (from UniProt Q02297 177-241) (ligand)
